Laboratory results as given in article PMC3498520 (Journal of the American Chemical Society, 2012).

Format: biochemical
Settings: total turnovers in ART hydroxylation; purified P450, NADPH regeneration system, 12 h

B1: wild-type P450BM3: catalytically self-sufficient fatty acid monooxygenase P450BM3 from Bacillus megaterium (protein, UniProt P14779 1-1049, looked up)
Bifunctional cytochrome …: MTIKEMPQPKTFGELKNLPLLNTDKPVQALMKIADELGEIFKFEAPGRVTRYLSSQRLIKEACDESRFDKNLSQALKFVRDFAGDGLFTSWTHEKNWKKAHNILLPSFSQQAMKGYHAMMVDIAVQLVQKWERLNADEHIEVPEDMTRLTLDTIGLCGFNYRFNSFYRDQPHPFITSMVRALDEAMNKLQRANPDDPAYDENKRQFQEDIKVMNDLVDKIIADRKASGEQSDDLLTHMLNGKDPETGEPLDDENIRYQIITFLIAGHETTSGLLSFALYFLVKNPHVLQKAAEEAARVLVDPVPSYKQVKQLKYVGMVLNEALRLWPTAPAFSLYAKEDTVLGGEYPLEKGDELMVLIPQLHRDKTIWGDDVEEFRPERFENPSAIPQHAFKPFGNGQRACIGQQFALHEATLVLGMMLKHFDFEDHTNYELDIKETLTLKPEGFVVKAKSKKIPLGGIPSPSTEQSAKKVRKKAENAHNTPLLVLYGSNMGTAEGTARDLADIAMSKGFAPQVATLDSHAGNLPREGAVLIVTASYNGHPPDNAKQFVDWLDQASADEVKGVRYSVFGCGDKNWATTYQKVPAFIDETLAAKGAENIADRGEADASDDFEGTYEEWREHMWSDVAAYFNLDIENSEDNKSTLSLQFVDSAADMPLAKMHGAFSTNVVASKELQQPGSARSTRHLEIELPKEASYQEGDHLGVIPRNYEGIVNRVTARFGLDASQQIRLEAEEEKLAHLPLAKTVSVEELLQYVELQDPVTRTQLRAMAAKTVCPPHKVELEALLEKQAYKEQVLAKRLTMLELLEKYPACEMKFSEFIALLPSIRPRYYSISSSPRVDEKQASITVSVVSGEAWSGYGEYKGIASNYLAELQEGDTITCFISTPQSEFTLPKDPETPLIMVGPGTGVAPFRGFVQARKQLKEQGQSLGEAHLYFGCRSPHEDYLYQEELENAQSEGIITLHTAFSRMPNQPKTYVQHVMEQDGKKLIELLDQGAHFYICGDGSQMAPAVEATLMKSYADVHQVSEADARLWLQQLEEKGRYAKDVWAG
TTN: no ART-oxidation activity
